The text below walks through data of paper PMC12120882.

Sequences and labels used below:
B1: SlCHS1 promoter E-box probe 1 (dsDNA)
DNA 1: AAGCCATTTTCTCTTCTTCACTTGCTAAAATTTGTATAATAT
DNA 2: ATATTATACAAATTTTAGCAAGTGAAGAAGAGAAAATGGCTT
B2: SlCHS1 promoter E-box probe 2 (dsDNA)
DNA 1: CTAAAAAAGTTGCTCAAACACGTGAAGACTAGCTACCGCCTA
DNA 2: TAGGCGGTAGCTAGTCTTCACGTGTTTGAGCAACTTTTTTAG
B3: SlFLS promoter E-box probe 3 (dsDNA)
DNA 1: TAAAAAGCTGTTTATCAGCACTTGTTTGCCAAACACATCAAC
DNA 2: GTTGATGTGTTTGGCAAACAAGTGCTGATAAACAGCTTTTTA
B4: SlCHS1 promoter E-box probe 3 (dsDNA)
DNA 1: TTTATACAGTTCTCTGCCCAAGTGTCTTTCTCTTTCTTGTTT
DNA 2: AAACAAGAAAGAGAAAGACACTTGGGCAGAGAACTGTATAAA
B5: SlFLS promoter E-box probe 2 (dsDNA)
DNA 1: ATTATACATACAAAATATCAATTGCAAGCTCTGATTTTATGT
DNA 2: ACATAAAATCAGAGCTTGCAATTGATATTTTGTATGTATAAT

This data set concerns the target SlbHLH95 (GST fusion) (Solanum lycopersicum, UniProt A0A3Q7IJR5 1-380). Description: EMSA.
Take B1: the binding result is “no binding”.
The same measure for B2: “no binding”; for B3: “no binding”; for B4: “no binding”.
The same measure for B5: “binds”.
